Source: patent US6001604

Biological target: SOD-proinsulin hybrid polypeptide expressed by plasmid pBAST-R (SOD-Insulin B chain-Lys-Arg-Insulin A chain hybrid polypeptide) (human)

human insulin generation after enzymatic cleavage (radioimmunoassay and RP-HPLC) (% of the theoretical yield): 80
Substance: trypsin (Sigma) (enzyme)
